The test has as its target photosystem I from Cyanobacterium aponinum 0216 (one monomer of the trimer, 11 protein subunits) (Cyanobacterium aponinum 0216 (endogenous)) (UniProt K9Z0B2). Put plainly: cryo-EM structure; single-particle cryo-EM of the purified PSI trimer, C3 symmetry imposed; 30 mM Tricine–NaOH pH 8, 150 mM NaCl, 0.02% DDM; three monomers in the trimer.

What is called stoichiometry N is a count of units in the complex or per binding partner.

“photosystem I from Cyanobacterium aponinum 0216 (one monomer of the trimer, 11 protein subunits) (from UniProt K9Z0B2 1-750; K9Z2J7 1-738; K9Z1N0 1-81; K9Z9J3 1-39; K9Z7Y0 1-163) (complex)” registered a stoichiometry N of 3.

Source of the values: PMC8428864.
